Measured values reported in paper PMC2696313.

Target: Δ41-52 hPRL (human prolactin with residues 41-52 removed) (human) (UniProt P01236)
Experiment: mass spectrometry

Δ41-52 hPRL (human prolactin with residues 41-52 removed) (from UniProt P01236 29-227) (ligand)
stoichiometry N: 2
